Assays:
PvdL module 1 (PvdLM1) = PvdL module 1 (PvdLM1) (Pseudomonas aeruginosa, UniProt Q9I157); test: ATP/[…]-pyrophosphate exchange assay; assay type: biochemical
PvdQ [1] = target: T1, PvdQ (Pseudomonas aeruginosa, UniProt Q9I194); test: co-crystal structure; assay type: biochemical
PvdQ [2] = target: T1, PvdQ; test: crystal structure, co-purified ligand; assay type: binding
[3] = test system: CCCCCCCCCCCC(=O)Oc1ccc2c(C)cc(=O)oc2c1; test: purified protein
[4] = test system: CCCCCCCCCCCCCC(=O)Oc1ccc([N+](=O)[O-])cc1; test: purified protein; conditions: myristate bound to Serβ[…]
[5] = test system: CCCCCCCCCCCC(=O)Oc1ccc([N+](=O)[O-])cc1; test: purified protein

T1 sequence (Q9I194 24-193): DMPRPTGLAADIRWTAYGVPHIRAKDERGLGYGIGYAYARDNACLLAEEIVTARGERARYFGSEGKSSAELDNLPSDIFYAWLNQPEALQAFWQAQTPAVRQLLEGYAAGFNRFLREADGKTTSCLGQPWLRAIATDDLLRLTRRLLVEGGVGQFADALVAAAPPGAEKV
T1 sequence (Q9I194 217-762): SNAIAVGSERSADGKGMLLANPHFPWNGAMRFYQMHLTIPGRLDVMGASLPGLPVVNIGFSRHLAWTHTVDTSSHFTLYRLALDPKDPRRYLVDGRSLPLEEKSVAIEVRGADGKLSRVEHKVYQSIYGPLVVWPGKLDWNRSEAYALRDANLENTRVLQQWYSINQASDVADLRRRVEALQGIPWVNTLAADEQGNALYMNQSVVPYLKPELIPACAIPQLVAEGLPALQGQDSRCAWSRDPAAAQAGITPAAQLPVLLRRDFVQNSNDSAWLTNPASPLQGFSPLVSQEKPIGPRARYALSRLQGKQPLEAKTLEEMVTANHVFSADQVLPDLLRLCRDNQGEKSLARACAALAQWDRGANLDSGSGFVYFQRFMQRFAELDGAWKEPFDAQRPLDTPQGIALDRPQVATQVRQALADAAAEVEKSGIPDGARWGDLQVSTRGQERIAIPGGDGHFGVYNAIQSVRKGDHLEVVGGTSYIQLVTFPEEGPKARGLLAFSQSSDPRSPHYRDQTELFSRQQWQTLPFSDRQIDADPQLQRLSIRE

CCCCCCCCCCCCCC(=O)O [C14, myristate]
CPM (×10^3) ^a (PvdL module 1 (PvdLM1)): 160.0 ± 14.1 CPM (×10^3)

O=c1onc2n1-c1cc(Br)ccc1OC2 [compound 922, 4H-8-Bromo-1,2,4-oxadiazolo[3,4-d]benz[b][1,4]oxazin-1-one]
IC50 (PvdQ [1]): 145 µM

CCCCCCCC(=O)O [octanoate]
crystal structure, co-purified ligand (PvdQ [2]): co-purifying octanoate molecule bound non-covalently in the fatty acid binding pocket

PvdQ (Pseudomonas aeruginosa PAO1)
Km [3]: 750 µM
kcat [3]: 1.24 s⁻¹
kcat/Km [3]: 1660 M⁻¹ s⁻¹
Km [4]: 1400 µM
kcat [4]: 0.74 s⁻¹
kcat/Km [4]: 521 M⁻¹ s⁻¹
Km [5]: 11400 µM
kcat [5]: 1.99 s⁻¹
kcat/Km [5]: 175 M⁻¹ s⁻¹

— publication PMC3220798 (2011)
